Tested on: SNU16 human stomach cancer cell line
Test: In vitro binding of FITC-conjugated peptides to apoptotic cells, flow cytometry
Assay type: cell-based
Settings: fluorescent probe
Experimental: SNU16 human stomach cancer cell line was purchased from KCLB (Seoul, Korea). […] After treatment, cells were incubated with fluorescein isothiocyanate (FITC)-conjugated linear or cyclic form of ApoPep-1 peptide at 4[…] for 1 hour. As control, cells were stained with Alexa488-conjugated annexin V (Life technologies, Carlsbad, Calif.) for 15 min at room temperature. Percentages of fluorescent (the liner or cyclic form of ApoPep-1 peptide-bound or annexin V-bound fluorescence) cells were calculated by measurement and analysis methods through the selection of the fluorescent signals (the liner or cyclic form of ApoPep-1 peptide-bound or annexin V-bound fluorescence), which were shown in the respective cells when cells in an emulsion state pass through a constant fluorescence detection zone, using flow cytometry (Fluorescence-activated cell sorting (FACS), FACS calibur, BD Biosciences, MA, USA).
Cyclic form of ApoPep-1 (cyclo[CQRPPRC] peptide of the present invention) was prepared by adding cysteine residue at the carboxy terminal of linear form of ApoPep-1 (CQRPPR) and performing cyclization through disulfide bonding.

B1: annexin V: existing apoptotic probe used as control, Alexa488-conjugated (Life technologies) (protein, UniProt P08758 2-320, looked up)
Annexin A5: AQVLRGTVTDFPGFDERADAETLRKAMKGLGTDEESILTLLTSRSNAQRQEISAAFKTLFGRDLLDDLKSELTGKFEKLIVALMKPSRLYDAYELKHALKGAGTNEKVLTEIIASRTPEELRAIKQVYEEEYGSSLEDDVVGDTSGYYQRMLVVLLQANRDPDAGIDEAQVEQDAQALFQAGELKWGTDEEKFITIFGTRSVSHLRKVFDKYMTISGFQIEETIDRETSGNLEQLLLAVVKSIRSIPAYLAETLYYAMKGAGTDDHTLIRVMVSRSEIDLFNIRKEFRKNFATSLYSMIKGDTSGDYKKALLLLCGEDD
modifications: Alexa488 conjugate
- percentage of apoptotic cells detected (SNU16 cells treated with cetuximab alone (200 ug/ml) for 24 hours): ~40%
- percentage of apoptotic cells detected (SNU16 cells treated with cisplatin (300 ng/ml) plus cetuximab in combination for 24 hours): ~45%
- percentage of apoptotic cells detected (SNU16 cells treated with cisplatin alone (300 ng/ml) for 24 hours): approximately 43%

Reference: patent US20170340698A1, “CYCLIC PEPTIDE SPECIFICALLY BINDING TO APOPTOTIC CELLS AND USE THEREOF” (KYUNGPOOK NATIONAL UNIVERSITY INDUSTRY-ACADEMIC COOPERATION …, priority 2014, published 2017)
